Where two headings read alike, the source gives them in different places.
T1: mouse MerTK on mouse macrophages (mouse, UniProt Q60805 19-994)
T1 sequence (looked up): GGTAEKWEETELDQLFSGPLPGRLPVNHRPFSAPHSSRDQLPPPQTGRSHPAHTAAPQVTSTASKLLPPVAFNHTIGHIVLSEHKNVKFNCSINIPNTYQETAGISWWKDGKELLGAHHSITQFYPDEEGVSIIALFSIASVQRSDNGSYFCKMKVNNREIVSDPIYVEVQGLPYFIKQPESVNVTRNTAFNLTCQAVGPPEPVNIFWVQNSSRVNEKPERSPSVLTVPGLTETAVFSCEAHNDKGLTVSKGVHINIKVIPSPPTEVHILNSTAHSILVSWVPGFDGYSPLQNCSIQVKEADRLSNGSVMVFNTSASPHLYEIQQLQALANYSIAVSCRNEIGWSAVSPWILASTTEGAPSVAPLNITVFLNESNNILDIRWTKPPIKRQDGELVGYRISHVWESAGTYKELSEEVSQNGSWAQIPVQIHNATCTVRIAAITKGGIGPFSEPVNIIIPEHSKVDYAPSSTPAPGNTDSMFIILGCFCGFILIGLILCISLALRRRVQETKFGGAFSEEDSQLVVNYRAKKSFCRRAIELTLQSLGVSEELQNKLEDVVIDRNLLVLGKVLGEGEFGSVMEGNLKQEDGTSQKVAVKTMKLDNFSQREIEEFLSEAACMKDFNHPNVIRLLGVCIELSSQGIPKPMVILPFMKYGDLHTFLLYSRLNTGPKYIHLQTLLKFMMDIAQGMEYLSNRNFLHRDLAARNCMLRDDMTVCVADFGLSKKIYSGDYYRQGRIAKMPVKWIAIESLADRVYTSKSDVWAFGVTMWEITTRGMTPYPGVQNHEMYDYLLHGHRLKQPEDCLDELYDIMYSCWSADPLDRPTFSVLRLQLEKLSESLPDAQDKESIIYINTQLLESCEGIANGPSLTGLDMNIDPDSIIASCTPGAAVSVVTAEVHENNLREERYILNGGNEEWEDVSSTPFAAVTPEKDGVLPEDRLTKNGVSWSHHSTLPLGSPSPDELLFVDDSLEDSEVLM

T2: rat MerTK (rat, UniProt P57097 23-496, limits assumed)
T2 construct: Soluble analyte in SPR
T2 sequence (looked up): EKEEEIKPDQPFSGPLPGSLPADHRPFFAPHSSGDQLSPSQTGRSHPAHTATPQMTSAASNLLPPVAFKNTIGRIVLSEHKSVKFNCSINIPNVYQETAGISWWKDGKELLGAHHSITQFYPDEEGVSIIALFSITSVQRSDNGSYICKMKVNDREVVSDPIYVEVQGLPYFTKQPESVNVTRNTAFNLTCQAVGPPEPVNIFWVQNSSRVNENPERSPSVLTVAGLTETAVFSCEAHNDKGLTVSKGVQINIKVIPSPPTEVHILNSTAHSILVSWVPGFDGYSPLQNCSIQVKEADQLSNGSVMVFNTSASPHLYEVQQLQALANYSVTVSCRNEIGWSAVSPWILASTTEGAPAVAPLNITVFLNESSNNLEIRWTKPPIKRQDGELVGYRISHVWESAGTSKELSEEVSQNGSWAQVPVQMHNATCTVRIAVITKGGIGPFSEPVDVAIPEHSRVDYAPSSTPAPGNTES

T3: human MerTK (human, UniProt Q12866 26-499)
T3 construct: also called HuMER
T3 sequence: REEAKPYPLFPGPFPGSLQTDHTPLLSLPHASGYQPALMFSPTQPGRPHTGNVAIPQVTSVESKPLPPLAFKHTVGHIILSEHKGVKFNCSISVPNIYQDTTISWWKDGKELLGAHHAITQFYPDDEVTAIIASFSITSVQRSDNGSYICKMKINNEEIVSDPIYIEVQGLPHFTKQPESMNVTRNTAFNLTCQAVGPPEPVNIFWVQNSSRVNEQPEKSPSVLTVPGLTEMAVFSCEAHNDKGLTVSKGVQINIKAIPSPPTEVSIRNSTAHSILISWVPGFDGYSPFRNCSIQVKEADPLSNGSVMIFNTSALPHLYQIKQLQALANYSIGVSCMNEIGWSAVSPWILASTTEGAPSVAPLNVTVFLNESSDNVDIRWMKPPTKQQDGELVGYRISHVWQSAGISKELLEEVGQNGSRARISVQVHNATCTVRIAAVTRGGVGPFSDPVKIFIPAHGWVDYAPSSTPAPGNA

T4: cynomolgus monkey MerTK (cynomolgus monkey, UniProt A0A2K5V1H9 32-505)
T4 construct: Soluble analyte in SPR; also called Cyno MerTK
T4 sequence: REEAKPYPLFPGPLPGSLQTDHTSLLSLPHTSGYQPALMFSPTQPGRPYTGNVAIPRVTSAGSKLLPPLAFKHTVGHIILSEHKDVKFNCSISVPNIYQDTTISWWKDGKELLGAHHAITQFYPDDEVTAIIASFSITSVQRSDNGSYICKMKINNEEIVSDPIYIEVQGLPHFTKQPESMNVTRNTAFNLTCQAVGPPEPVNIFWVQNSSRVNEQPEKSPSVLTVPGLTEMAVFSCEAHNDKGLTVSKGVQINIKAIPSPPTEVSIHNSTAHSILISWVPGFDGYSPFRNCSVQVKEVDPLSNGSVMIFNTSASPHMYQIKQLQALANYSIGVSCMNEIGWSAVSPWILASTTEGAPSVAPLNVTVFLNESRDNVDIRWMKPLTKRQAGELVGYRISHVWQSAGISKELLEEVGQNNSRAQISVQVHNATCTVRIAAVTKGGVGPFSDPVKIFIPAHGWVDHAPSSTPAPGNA

T5: mouse MerTK (mouse, UniProt Q60805 23-496)
T5 construct: also called MuMER
T5 sequence (looked up): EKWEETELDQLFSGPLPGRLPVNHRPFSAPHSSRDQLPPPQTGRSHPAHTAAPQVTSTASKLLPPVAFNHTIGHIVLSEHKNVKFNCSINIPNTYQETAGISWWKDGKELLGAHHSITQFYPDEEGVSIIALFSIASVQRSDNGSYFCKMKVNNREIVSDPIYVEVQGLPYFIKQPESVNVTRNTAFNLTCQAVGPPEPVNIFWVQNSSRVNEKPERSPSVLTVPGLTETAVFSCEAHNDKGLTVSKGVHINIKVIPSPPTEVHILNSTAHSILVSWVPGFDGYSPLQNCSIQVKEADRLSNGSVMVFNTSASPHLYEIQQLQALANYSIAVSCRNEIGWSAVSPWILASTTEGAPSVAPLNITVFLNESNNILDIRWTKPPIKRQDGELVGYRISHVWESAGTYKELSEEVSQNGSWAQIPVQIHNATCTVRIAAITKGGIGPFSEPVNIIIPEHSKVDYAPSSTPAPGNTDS

T6: HuMER (R26-A499) (human, UniProt Q12866 26-499)
T6 construct: Extracellular domain with both Ig-like and both fibronectin-like domains; also called human MerTK extracellular domain
T6 sequence: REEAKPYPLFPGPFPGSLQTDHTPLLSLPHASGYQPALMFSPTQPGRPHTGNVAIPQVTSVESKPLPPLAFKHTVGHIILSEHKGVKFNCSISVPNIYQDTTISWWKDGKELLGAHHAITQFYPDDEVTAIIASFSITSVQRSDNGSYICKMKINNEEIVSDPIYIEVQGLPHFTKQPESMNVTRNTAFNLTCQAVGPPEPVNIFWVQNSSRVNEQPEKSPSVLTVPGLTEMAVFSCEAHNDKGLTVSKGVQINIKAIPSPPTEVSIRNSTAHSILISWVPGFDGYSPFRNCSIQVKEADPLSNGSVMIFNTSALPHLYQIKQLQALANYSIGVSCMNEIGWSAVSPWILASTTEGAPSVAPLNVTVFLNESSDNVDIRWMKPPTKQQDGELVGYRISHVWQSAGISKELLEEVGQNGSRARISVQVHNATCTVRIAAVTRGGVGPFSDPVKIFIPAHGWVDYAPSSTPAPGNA

T7: MuMER (E23-S496) (mouse, UniProt Q60805 23-496)
T7 construct: range 23-496; also called mouse MerTK extracellular domain
T7 sequence (looked up): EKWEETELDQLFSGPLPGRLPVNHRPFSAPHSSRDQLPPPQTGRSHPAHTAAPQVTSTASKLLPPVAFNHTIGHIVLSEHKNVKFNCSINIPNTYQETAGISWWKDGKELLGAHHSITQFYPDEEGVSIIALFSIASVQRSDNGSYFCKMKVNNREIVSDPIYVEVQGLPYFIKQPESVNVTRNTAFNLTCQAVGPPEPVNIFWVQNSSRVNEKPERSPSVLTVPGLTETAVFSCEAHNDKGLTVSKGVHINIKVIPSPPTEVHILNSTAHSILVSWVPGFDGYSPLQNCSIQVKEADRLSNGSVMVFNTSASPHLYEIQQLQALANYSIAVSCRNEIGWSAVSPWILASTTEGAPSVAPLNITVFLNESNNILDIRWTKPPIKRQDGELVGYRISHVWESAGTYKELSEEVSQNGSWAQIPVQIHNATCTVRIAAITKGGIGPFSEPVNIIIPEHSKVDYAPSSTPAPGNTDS


How the values were obtained:
[1] = molecular target: T1, mouse MerTK on mouse macrophages; assay: cell-based or functional assay
[2] = molecular target: T2, rat MerTK; assay: SPR BIAcore T200, Ab captured, 37C
Procedure: (§1) All binding affinity determinations were obtained using Surface Plasmon Resonance (SPR) measurements from a BIAcore™-T200 instrument. Briefly, each rabbit or humanized antibody was captured to achieve approximately 100 RU (Response Units). Then, 3-fold serial dilutions of MerTK from various species (0.4 nM to 100 nM) diluted in HBS-EP buffer (0.01M HEPES pH 7.4, 0.15M NaCl, 3 mM EDTA and 0.05% v/v surfactant P20) was injected into the BIAcore™-T200 instrument at 25° C. or 37° C. with a flow rate of 30 μl/min. Association rates (kₒₙ) and dissociation rates (koff) were calculated using a simple one-to-one Langmuir binding model (BIAcore T200 evaluation software version 2.0). The equilibrium dissociation constant (KD) was calculated as the ratio koff/kₒₙ.

[3] = molecular target: T3, human MerTK; assay: SPR BIAcore T200, Ab captured, 37C
Procedure: as §1

[4] = molecular target: T4, cynomolgus monkey MerTK; assay: SPR BIAcore T200, Ab captured, 37C
Procedure: as §1

[5] = molecular target: T5, mouse MerTK; assay: SPR BIAcore T200, Ab captured, 37C
Procedure: as §1

[6] = molecular target: T3, human MerTK; assay: SPR BIAcore T200, Ab captured, 25C
How it was run: (§2)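 Rabbit or humanized antibody captured to ~100 RU; MerTK injected as 3-fold dilutions from 0.4 nM to 100 nM in HBS-EP (HEPES pH 7.4) at 30 μl/min, at 25° C. or 37° C. kon and koff fitted to a 1:1 Langmuir model; KD = koff/kon.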

[7] = molecular target: T4, cynomolgus monkey MerTK; assay: SPR BIAcore T200, Ab captured, 25C
How it was run: as §2

[8] = molecular target: T5, mouse MerTK; assay: SPR BIAcore T200, Ab captured, 25C
How it was run: as §2

[9] = molecular target: T6, HuMER (R26-A499); assay: SPR BIAcore T200, Ab captured, 25C
How it was run: (§3)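 Rabbit antibody captured to ~100 RU; MerTK domain injected as 3-fold dilutions (0.4–100 nM) in HBS-EP pH 7.4 at 25 °C, 30 μl/min. kon and koff from 1:1 Langmuir fit; KD = koff/kon.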

[10] = molecular target: T7, MuMER (E23-S496); assay: SPR BIAcore T200, Ab captured, 25C
How it was run: as §3

[11] = molecular target: T2, rat MerTK; assay: SPR BIAcore T200, Ab captured, 37C; remark: listed apart in the source
How it was run: as §2

[12] = molecular target: T3, human MerTK; assay: SPR BIAcore T200, Ab captured, 37C; remark: listed apart in the source
How it was run: as §2

[13] = molecular target: T4, cynomolgus monkey MerTK; assay: SPR BIAcore T200, Ab captured, 37C; remark: listed apart in the source
How it was run: as §2

[14] = molecular target: T5, mouse MerTK; assay: SPR BIAcore T200, Ab captured, 37C; remark: listed apart in the source
How it was run: as §2

[15] = molecular target: T3, human MerTK; assay: SPR BIAcore T200, Ab captured, 37C; remark: listed apart in the source

| Molecule | pAKT levels in macrophages incubated with the ligand [1] [pM] | Kd [2] [nM] | Kd [3] [nM] | Kd [4] [nM] | Kd [5] [nM] | Kd [6] [nM] | Kd [7] [nM] | Kd [8] [nM] | Kd [9] [nM] | Kd [10] [nM] | Kd [11] [nM] | Kd [12] [nM] | Kd [13] [nM] | Kd [14] [nM] | Kd [15] [nM] |
| --- | --- | --- | --- | --- | --- | --- | --- | --- | --- | --- | --- | --- | --- | --- | --- |
| recombinant human GAS6-Fc protein (from UniProt Q14393 31-678) (Fc fusion) | 84 |  |  |  |  |  |  |  |  |  |  |  |  |  |  |
| Rbt10C3 (antibody, V domains shown, Recombinant rabbit monoclonal antibody, Expi293, protein A purified) VH: QSLEESGGRLVTPGTPLTLTCTASGFSLSGYTMGWVRQAPGKGLEYIGVISSGGTTYYTNWAKGRFTISKTSTTVDLKITSPTTEDTATYFCARVAFTAYGGGGFPTLHRLDLWGQGTLVTVSS VL: AQVLIQTASSVSAAVGGTVTISCQSSESVYNNDYLAWYQQKPGQPPKLLIYSASTLASGVPSRFKGSGSGTQFTLTISDLECDDAATYYCAGGYLGNNVFGGGTEVVVK |  | 2.4 | 9.9 | 4.1 | 0.8 | 3.4 | 3 | 0.7 | 3.4 | 0.7 |  |  |  |  |  |
| h10C3.v1 (antibody, V domains shown, also called h10C3.V1 (Parent); 10C3 Humanized mAb V1) VH: EQQLVESGGGLVQPGGSLRLSCAASGFSLSGYTMGWVRQAPGKGLEYIGVISSGGTTYYTNWAKGRFTISKDSSKNTVYLQMGSLRAEDMAVYFCARVAFTAYGGGGFPTLHRLDLWGQGTLVTVSS VL: DQVLTQSPDSLAVSLGERATINCQSSESVYNNDYLAWYQQKPGQPPKLLIYSASTLASGVPDRFSGSGSGTDFTLTISSLQAEDVAVYYCAGGYLGNNVFGGGTKVEIK |  | 3.3 | 12.9 | 5.3 | 1.1 |  |  |  |  |  | 3.3 | 11.6 | 5.3 | 1 | 13.8 |

From patent publication US20220135701A1 (Genentech, published 2022)
